The target of test [1] is DRB1*0101 (Homo sapiens, UniProt P01903+P01911, A100R/D57E/F55L/F60I/F76Y/I96L/L162R/M171V/P40L/Q125E/R42F/V115G/Y59C). Nature of the test: MHC peptide binding studies with synthetic peptide. The note with it: MHC peptide binding study.
The target in test [2] is DRB1*0401 (Homo sapiens, UniProt P01903+P01911, A100K/A169T/F76Y/I96L/K127E/L162R/M171V/N62H/P40V/Q125Y/R42H/S133A/S149N/S66Y/V115G/V209L/W38E). The test can be described thus: MHC peptide binding studies with synthetic peptide. The following applies: MHC peptide binding study.
Test [3] deals with DRB5*0101 (Homo sapiens, UniProt P01903+Q30154). Nature of the test: MHC peptide binding studies with synthetic peptide. The following applies: MHC peptide binding study.
For test [4], the target named is HLA-DR allele DRB5*0101 (human). The test can be described thus: MHC peptide binding study with synthetic peptide.
The target of test [5] is HLA-DR allele DRB1*0101 (human). Nature of the test: MHC peptide binding study with synthetic peptide.
The target in test [6] is HLA-DR allele DRB1*0401 (human). The test can be described thus: MHC peptide binding study with synthetic peptide.

On to KPGKTKTIVYQRGILLPQ, for which the “binding capacity to allele DRB1*0101” value in test [1] is listed as “confirmed the binding capacity”. Also, in test [2], the “binding capacity to allele DRB1*0401” value was “revealed the same”. Further, the “binding capacity to allele DRB5*0101” value in test [3] is “confirmed the binding capacity”.

B1: synthetic peptide with the amino acid sequence KPGKTKTIVYQRGILLPQ (influenza hemagglutinin epitope, strain B/Yamanashi/166/98) (peptide)
peptide: KPGKTKTIVYQRGILLPQ
Turning to B1, the binding result in test [4], in test [5] and in test [6] was “binds” in each case.
